Data published in article PMC2952662.

Target: N-terminally His6-tagged Akt1 PH domain S2-S128 construct (human)
Experiment: SPR

Kd: 1400 nM
koff: 0.000116 s⁻¹
Substance: Akt inhibitor VI, a 15 residue peptide derived from the oncogene TCL1
